Measurements: patent US20200149062

Assays:
[1] = test system: WT-TSC2-FLAG
[2] = test system: TSC2-FLAG SA (S1365A)

Sequence of ERK2 (P28482 2-360): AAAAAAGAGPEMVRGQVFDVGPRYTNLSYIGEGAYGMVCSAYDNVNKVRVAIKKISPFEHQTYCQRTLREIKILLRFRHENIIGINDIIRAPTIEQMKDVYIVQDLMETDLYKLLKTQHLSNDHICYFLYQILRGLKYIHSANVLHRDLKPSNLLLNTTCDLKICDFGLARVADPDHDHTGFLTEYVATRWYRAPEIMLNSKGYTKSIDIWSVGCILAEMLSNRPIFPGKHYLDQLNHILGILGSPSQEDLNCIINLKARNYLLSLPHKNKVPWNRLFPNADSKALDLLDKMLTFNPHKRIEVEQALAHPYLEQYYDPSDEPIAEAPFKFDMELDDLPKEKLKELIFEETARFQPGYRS

## ERK2
[1]
  TSC2 radiolabeling with [gamma-33P]-ATP (in vitro kinase assay on FLAG-immune-precipitate): ERK2-TSC2 phosphorylation served as a positive control

## modified PKG (M438G)
[2]
  thiophosphate ester labeling of TSC2: both radioactive or thiophosphate ester labeling of TSC2 was also seen when SA TSC2 was used

## recombinant PKG (purified active PKG)
[2]
  radioactive labeling of TSC2 ([gamma-33P]-ATP, autoradiography): both radioactive or thiophosphate ester labeling of TSC2 was also seen when SA TSC2 was used
